Results on two molecules are retold here after paper PMC7019923.

One series deals with T1, squid p32 (AUF1 homolog) (Aedes albopictus (cDNA from C6/36 cells), UniProt A0A023EP16 2-301).
T1 sequence: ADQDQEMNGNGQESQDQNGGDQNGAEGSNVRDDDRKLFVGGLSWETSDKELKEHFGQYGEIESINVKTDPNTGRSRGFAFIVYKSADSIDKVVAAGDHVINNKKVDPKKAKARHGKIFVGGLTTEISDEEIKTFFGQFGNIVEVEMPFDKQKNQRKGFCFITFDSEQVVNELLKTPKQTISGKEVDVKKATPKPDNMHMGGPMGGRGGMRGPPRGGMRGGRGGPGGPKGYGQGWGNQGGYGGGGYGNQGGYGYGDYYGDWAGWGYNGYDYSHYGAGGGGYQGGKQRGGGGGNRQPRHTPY
In words: fluorescence intensity titration. The following applies: protein: recombinant; tags: none after cleavage (SUMO fusion removed by SUMO protease).

A further series deals with T2, squid p30 (AUF1 homolog) (Aedes albopictus (cDNA from C6/36 cells), UniProt A0ABM1XVA0 2-281).
T2 sequence: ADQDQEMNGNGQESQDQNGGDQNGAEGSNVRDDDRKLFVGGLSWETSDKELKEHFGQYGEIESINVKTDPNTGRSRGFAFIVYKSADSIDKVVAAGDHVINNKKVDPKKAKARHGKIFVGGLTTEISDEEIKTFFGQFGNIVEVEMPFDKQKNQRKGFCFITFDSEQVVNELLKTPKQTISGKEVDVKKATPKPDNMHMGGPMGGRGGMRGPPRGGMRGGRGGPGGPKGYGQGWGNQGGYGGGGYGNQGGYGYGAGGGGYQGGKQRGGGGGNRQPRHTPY
Put plainly: fluorescence intensity titration. The following applies: protein: recombinant; tags: none after cleavage (SUMO fusion removed by SUMO protease).

On to UAUUUAGUGGUGUUAG (ssRNA) [AU/GU-rich RNA], for which the Kd in the series with squid p32 (AUF1 homolog) came out at 130 nM; with squid p30 (AUF1 homolog) it was 13 nM.
In the case of CUAAGAUGCUCGCUGC (ssRNA) [random RNA], the results for the Kd with squid p32 (AUF1 homolog) and with squid p30 (AUF1 homolog) were 630 nM and 250 nM, respectively.

For orientation: Kd means a measure of binding affinity in units of concentration.
